Source: article PMC5308896, “A conformational switch regulates the ubiquitin ligase HUWE1” (eLife, 2017)
Ends that are not written are not given here.

Tests used:
Experiment in all cases: fluorescence polarisation; apparent KD; constant 1 μM TAMRA-labelled p14ARF (45–64) peptide titrated with HUWE1 protein; 25°C, 20 mM HEPES pH 8.0, 150 mM NaCl, 10% glycerol, 1 mM EDTA, 5 mM DTT; three independent experiments
Conditions in all cases: both partners purified
HUWE1 (3810–4374) = target: T1, HUWE1 (3810–4374) (human, UniProt Q7Z6Z7 3810-4374)
T1 construct: source: LOBSTR RIL cells, purified (IMAC, gel filtration)
T1 sequence (looked up): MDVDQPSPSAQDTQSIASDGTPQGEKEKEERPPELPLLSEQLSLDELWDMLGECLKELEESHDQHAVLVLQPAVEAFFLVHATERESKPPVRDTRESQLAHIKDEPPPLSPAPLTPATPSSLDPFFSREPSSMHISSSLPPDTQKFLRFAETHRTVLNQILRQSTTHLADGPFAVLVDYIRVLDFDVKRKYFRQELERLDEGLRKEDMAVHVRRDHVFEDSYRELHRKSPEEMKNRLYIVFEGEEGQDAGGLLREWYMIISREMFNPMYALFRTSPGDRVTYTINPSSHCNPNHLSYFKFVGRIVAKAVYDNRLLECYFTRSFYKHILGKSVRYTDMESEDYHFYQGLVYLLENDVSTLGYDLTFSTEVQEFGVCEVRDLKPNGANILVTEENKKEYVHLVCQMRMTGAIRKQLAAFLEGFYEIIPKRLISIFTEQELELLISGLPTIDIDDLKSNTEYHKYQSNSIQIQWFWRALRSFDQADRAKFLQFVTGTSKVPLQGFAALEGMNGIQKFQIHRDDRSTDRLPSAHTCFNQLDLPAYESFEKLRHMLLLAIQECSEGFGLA

HUWE1 (3759–4374) = target: T2, HUWE1 (3759–4374) (human, UniProt Q7Z6Z7 3759-4374)
T2 construct: also called extended C-terminal HUWE1 fragment; source: LOBSTR RIL cells, purified (IMAC, gel filtration)
T2 sequence (looked up): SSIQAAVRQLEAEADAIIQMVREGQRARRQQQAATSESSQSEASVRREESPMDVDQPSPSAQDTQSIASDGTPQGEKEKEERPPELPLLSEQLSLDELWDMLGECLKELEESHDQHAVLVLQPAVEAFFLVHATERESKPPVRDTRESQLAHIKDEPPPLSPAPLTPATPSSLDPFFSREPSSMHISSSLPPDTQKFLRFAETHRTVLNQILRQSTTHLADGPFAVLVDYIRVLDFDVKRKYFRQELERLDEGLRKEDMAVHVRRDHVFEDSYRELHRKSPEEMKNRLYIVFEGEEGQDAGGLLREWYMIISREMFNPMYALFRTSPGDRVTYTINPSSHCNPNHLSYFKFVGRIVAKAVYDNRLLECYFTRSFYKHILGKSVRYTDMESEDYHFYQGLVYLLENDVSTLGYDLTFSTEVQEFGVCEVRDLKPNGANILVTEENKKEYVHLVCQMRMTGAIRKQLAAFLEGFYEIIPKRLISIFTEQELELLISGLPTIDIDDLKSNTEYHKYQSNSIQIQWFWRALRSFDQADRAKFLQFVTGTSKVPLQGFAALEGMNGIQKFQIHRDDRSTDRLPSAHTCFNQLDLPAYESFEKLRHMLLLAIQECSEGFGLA

[1] = target: T3, HUWE1 (3951–4374), untagged (human, UniProt Q7Z6Z7 3951-4374)
T3 construct: Monomer MW 49.752 kDa (AUC methods); source: LOBSTR RIL cells, purified (IMAC, TEV protease cleavage, second IMAC, gel filtration); not shown: His6, N-terminal, cleaved
T3 sequence (looked up): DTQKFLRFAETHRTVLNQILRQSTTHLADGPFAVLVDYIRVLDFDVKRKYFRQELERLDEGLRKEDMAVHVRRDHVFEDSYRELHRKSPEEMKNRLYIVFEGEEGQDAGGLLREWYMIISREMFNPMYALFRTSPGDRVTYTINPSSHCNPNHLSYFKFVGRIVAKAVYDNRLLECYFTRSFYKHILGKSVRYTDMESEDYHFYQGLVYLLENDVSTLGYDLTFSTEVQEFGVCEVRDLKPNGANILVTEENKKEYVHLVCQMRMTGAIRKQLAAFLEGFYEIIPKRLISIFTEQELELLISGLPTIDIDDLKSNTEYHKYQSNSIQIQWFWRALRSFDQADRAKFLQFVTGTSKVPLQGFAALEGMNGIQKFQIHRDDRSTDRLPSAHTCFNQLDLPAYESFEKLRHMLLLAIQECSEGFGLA

[2] = target: T4, HUWE1 (3993–4374), HECT domain (human, UniProt Q7Z6Z7 3993-4374)
T4 construct: also called isolated HECT domain; source: LOBSTR RIL cells, purified (IMAC, gel filtration)
T4 sequence (looked up): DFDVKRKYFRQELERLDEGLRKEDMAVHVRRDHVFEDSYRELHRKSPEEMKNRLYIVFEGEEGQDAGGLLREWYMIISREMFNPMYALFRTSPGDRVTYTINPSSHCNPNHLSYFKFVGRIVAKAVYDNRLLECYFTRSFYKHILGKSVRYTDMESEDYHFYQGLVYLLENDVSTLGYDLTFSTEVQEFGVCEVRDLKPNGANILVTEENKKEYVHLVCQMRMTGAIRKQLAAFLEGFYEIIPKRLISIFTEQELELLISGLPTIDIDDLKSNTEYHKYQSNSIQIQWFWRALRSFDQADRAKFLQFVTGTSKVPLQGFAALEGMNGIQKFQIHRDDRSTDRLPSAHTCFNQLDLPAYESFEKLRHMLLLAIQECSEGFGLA

B1: fluorophor-labeled p14ARF-derived peptide (residues 45–64), TAMRA-labelled (peptide)
peptide: LVLMLLRSQRLGQQPLPRRPK(TAMRA)
notes: p14ARF (alternative reading frame product of CDKN2A), human, residues 45–64; additional lysine residue at the C-terminus that carries the TAMRA label (told in words); also called p14ARF-peptide; p14ARF (45-64); source: synthetic peptide, bought: Elim Biopharm
Q: With B1 as the binder, how does the Kd (HUWE1 (3810–4374)) read?
A: 6 ± 1 µM

Q: And the Kd (HUWE1 (3759–4374))?
A: 7.7 ± 0.4 µM

Q: And the Kd [1]?
A: 280 ± 40 µM

Q: What about the Kd [2] of the same binder?
A: 230 ± 40 µM
